Test results published in publication doi:10.1101/2023.11.08.566258.

Biological target: Prominin-1 (Prom1) W795R, C-terminally Strep-tagged (human)
Assay: co-IP; EVs from cells co-transfected with Strep-tagged and mScarlet-tagged Prom1, solubilized with 1% DDM; Strep resin; co-purified Prom1-mScarlet measured by fluorescence imaging of the resin beads (CY3 filter set); control with Prom1-mScarlet alone

## Prominin-1 (Prom1) W795R, C-terminally Strep-tagged (natural protein)
  co-purified mScarlet fluorescence, percent of WT Prom1: 60%
